Laboratory results reported in PMC6395645, “Anopheline antiplatelet protein from mosquito saliva regulates blood feeding behavior” (Scientific Reports, 2019).

Target: T1, Anopheline antiplatelet protein (AAPP) (Anopheles stephensi (endogenous in …, UniProt Q7YT37))
T1 construct: Anopheline antiplatelet protein (AAPP), predominant saliva protein of Anopheles stephensi; acidic secretory protein, Mr = 37 kDa on immunoblots; Same endogenous protein in saliva and in salivary gland lysates; in TG mosquitoes it is present together with mDsRed-8H7scFv; source: endogenous, Anopheles stephensi saliva and salivary gland lysates/homogenates (WT and TG mosquitoes)
Experiment: pull-down; Ni-NTA beads added to lysates (Cellytic M) of dissected salivary glands of TG and WT mosquitoes, 1 h on ice, washed with PBS; His-tagged mDsRed-8H7scFv held on the resin; eluate blotted with anti-AAPP mAb 28B8 and anti-mDsRed polyclonal Ab
Details: partners not purified

T1 sequence (Q7YT37 20-269): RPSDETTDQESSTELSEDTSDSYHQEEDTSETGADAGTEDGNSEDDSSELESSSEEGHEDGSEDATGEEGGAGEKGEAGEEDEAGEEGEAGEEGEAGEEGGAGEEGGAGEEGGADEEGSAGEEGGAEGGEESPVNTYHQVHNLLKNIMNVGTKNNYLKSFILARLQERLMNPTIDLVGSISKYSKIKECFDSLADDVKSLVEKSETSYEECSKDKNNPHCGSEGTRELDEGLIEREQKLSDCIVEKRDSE

B1: mDsRed-8H7scFv (scFv, V domains shown)
VH: QVQLQQPGAELVRPGASVKLSCKASGYTFTSYWMNWVKQRPGQGLEWIGLIDPSDSETHYNQMFKDKATLTVDKSSSTAYMQLSSLTSEDSAVYYCARGGTYWGQGTTLTVSS
VL: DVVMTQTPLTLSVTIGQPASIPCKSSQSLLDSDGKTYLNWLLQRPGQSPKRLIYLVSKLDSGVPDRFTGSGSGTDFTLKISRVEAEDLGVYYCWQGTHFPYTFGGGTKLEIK
notes: VH of the anti-AAPP mAb 8H7; hinge/linker, printed as (Gly4Ser)3; VL of the anti-AAPP mAb 8H7; 54.6 kDa on blots; 8H7scFv is fused to monomeric DsRed through Gly4Ser x 3 linkers; The secretion signal is not described; also called anti-AAPP scFv; anti-AAPP antibody single-chain fragment; source: transgenic Anopheles stephensi (TG-03, TG-30, TG-37), expressed in salivary glands under the aapp …
binding result: binds
